This note sets out measurements from patent US20150291697A1 (PERSEUS PROTEOMICS, published 2015).

Assay [1] has as its target T1, soluble TfR antigen (human TfR extracellular domain) (human, UniProt P02786 89-760).
T1 construct: also called soluble human TfR
As to the kind of experiment: ELISA, soluble TfR antigen coated at 2 ug/mL, HRP anti-human IgG Fc, A450. (In general: ELISA stands for enzyme-linked immunosorbent assay.)

For assay [2], the target named is human transferrin receptor (TfR) on cells (human, UniProt P02786 1-760). As to the kind of experiment: cell-based or functional assay.
Chain of human transferrin receptor (TfR) on cells (P02786 whole entry): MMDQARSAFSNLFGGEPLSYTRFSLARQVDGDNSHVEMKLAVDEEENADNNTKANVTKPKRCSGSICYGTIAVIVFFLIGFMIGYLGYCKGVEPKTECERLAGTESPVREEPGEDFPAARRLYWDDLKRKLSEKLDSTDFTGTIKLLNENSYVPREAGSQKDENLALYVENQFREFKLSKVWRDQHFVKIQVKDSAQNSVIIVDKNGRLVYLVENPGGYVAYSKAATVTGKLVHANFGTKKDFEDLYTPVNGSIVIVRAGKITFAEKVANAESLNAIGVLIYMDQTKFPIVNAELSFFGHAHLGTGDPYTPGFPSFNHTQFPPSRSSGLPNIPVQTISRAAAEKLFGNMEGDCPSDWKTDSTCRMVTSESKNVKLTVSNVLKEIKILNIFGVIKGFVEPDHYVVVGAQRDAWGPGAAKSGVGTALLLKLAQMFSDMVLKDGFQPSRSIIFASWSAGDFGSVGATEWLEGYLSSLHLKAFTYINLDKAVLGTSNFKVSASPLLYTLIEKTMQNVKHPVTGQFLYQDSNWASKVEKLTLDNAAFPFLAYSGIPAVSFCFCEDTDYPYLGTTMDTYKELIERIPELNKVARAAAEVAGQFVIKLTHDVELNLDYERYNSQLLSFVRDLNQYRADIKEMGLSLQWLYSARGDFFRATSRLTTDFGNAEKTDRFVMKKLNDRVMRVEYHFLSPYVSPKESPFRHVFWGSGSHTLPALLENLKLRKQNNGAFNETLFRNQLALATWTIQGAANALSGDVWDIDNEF

T1 sequence (P02786 89-760 limits assumed): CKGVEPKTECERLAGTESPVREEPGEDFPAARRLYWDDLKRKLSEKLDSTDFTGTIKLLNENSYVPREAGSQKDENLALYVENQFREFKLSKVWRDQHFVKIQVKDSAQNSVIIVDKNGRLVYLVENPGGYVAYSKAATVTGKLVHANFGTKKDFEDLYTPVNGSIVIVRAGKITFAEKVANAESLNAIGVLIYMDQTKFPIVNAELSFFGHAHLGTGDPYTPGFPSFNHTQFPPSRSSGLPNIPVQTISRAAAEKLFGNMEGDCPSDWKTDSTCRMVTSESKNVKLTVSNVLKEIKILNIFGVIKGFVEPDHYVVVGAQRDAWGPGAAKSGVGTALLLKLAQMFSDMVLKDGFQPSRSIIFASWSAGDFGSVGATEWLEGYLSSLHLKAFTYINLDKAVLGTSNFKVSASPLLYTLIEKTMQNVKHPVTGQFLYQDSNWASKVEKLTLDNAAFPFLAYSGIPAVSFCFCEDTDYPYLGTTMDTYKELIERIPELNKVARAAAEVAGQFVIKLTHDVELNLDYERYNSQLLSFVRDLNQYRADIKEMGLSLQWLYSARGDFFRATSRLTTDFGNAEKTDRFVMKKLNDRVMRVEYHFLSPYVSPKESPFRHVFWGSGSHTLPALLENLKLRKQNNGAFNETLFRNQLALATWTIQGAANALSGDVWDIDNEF

B1: 3TF12 IgG1 antibody (from 3TF12 scFv of WO 2011/073943) (antibody, V domains shown)
VH: QVQLQESGGGLVQPGGSLRLSCAASGFSFNTYTMHWVRQAPGKGLEWVADIAYDGSTKYYADSVKGRFTISRDNAKNSLYLQMNSLRAEDTAVYYCARDAVAGEGYFDLWGRGTLVTVSS
VL: QSALTQDPAVSVALGQTVRITCQGDSLRSYYASWYQQLPGTAPKLLIYRNNQRPSGVPDRFSGSKSGTSASLAISGLRSEDEADYYCAAWDDSLSAWVFGGGTKLTVLG
notes: also called 3TF12 antibody
Turning to B1, in assay [1], the binding result is listed as “binds”.

B2: TfR006 antibody (parent antibody, IgG) (antibody, V domains shown)
VH: QVQLVQSGGGVVQPGRSLRLSCAASGFPFKSYGMHWVRQAPGKGLEWVAVISFDGSSKYYADSVKGRFTISRDNSKNTLYLQMNSLRGEDTAVYYCARDSNFWSGYYSPVDVWGQGTTVTVSS
VL: NFMLTQPHSVSESPGKTVTISCTRSSGSIASNSVQWYQQRPGSAPITVIYEDTQRPSGVPDRFSGSIDSSSNSASLTISGLQTEDEADYYCQSYDSAYHWVFGGGTKLAVL
With B2, in assay [2], the “Antibody concentration exhibiting 50% growth rate (IC50), K562 cells” value came out at 0.034 µg/mL and the “Antibody concentration exhibiting 50% growth rate (IC50), MT-2 cells” value came to 0.008 µg/mL.
